Laboratory results reported in US8465945B2, “Method for production and use of mite group 1 proteins” (Merck Patent GmbH, priority 1999, dated 2013).

System: IgE from mite-allergic or normal human sera
Assay: ELISA, binding of IgE from human sera to coated Der f 1 proteins or mite extracts, detected with FcεR1α-biotin

B1: PDerf1303b: Recombinant Der f 1 expressed by P. pastoris HCY215 from nDerf1909b (pro-form, SEQ ID NO:29); actually secreted as mature form (protein, listed as Dermatophagoides farinae)
chain: RPASIKTFEEFKKAFNKNYATVEEEEVARKNFLESLKYVEANKGAINHLSDLSLDEFKNRYLMSAEAFEQLKTQFDLNAETSACRINSVNVPSELDLRSLRTVTPIRMQGGCGSCWAFSGVAATESAYLAYRNTSLDLSEQELVDCASQHGCHGDTIPRGIEYIQQNGVVEERSYPYVAREQRCRRPNSQHYGISNYCQIYPPDVKQIREALTQTHTAIAVIIGIKDLRAFQHYDGRTIIQHDNGYQPNYHAVNIVGYGSTQGDDYWIVRNSWDTTWGDSGYGYFQAGNNLMMIEQYPYVVIM
OD, bound IgE (Assay Number 1, serum human 1916): 11 OD multiplied by 1000
OD, bound IgE (Assay Number 1, serum human3848): 1192 OD multiplied by 1000
OD, bound IgE (Assay Number 1, serum human 3958): 2244 OD multiplied by 1000
OD, bound IgE (Assay Number 1, serum human 3960): 646 OD multiplied by 1000
OD, bound IgE (Assay Number 1, serum human 3961): 433 OD multiplied by 1000
OD, bound IgE (Assay Number 1, serum human 3987): 1377 OD multiplied by 1000
OD, bound IgE (Assay Number 1, serum human 4289): 182 OD multiplied by 1000
OD, bound IgE (Assay Number 1, serum human 4467): 694 OD multiplied by 1000
OD, bound IgE (Assay Number 1, serum human 5207): 2153 OD multiplied by 1000
OD, bound IgE (Assay Number 1, serum human pool): 1547 OD multiplied by 1000
OD, bound IgE (Assay Number 2, serum Heska human B): 2 OD multiplied by 1000
OD, bound IgE (Assay Number 2, serum Heska human C): 4 OD multiplied by 1000
OD, bound IgE (Assay Number 2, serum Heska human D): 0 OD multiplied by 1000
OD, bound IgE (Assay Number 2, serum Heska human E): 1 OD multiplied by 1000
OD, bound IgE (Assay Number 2, serum Heska human F): 0 OD multiplied by 1000
OD, bound IgE (Assay Number 2, serum Heska human G): 0 OD multiplied by 1000
OD, bound IgE (Assay Number 2, serum Heska human H): 0 OD multiplied by 1000
OD, bound IgE (Assay Number 2, serum Heska human I): 4 OD multiplied by 1000
OD, bound IgE (Assay Number 2, serum Heska human J): 0 OD multiplied by 1000
OD, bound IgE (Assay Number 2, serum Heska human K): 0 OD multiplied by 1000
OD, bound IgE (Assay Number 2, serum Heska human L): 0 OD multiplied by 1000
OD, bound IgE (Assay Number 2, serum Heska human M): 0 OD multiplied by 1000
OD, bound IgE (Assay Number 2, serum Heska human N): 370 OD multiplied by 1000
OD, bound IgE (Assay Number 2, serum Heska human O): 0 OD multiplied by 1000
OD, bound IgE (Assay Number 2, serum Heska human P): 0 OD multiplied by 1000
OD, bound IgE (Assay Number 2, serum Heska human Q): 0 OD multiplied by 1000
OD, bound IgE (Assay Number 2, serum Heska human R): 0 OD multiplied by 1000
OD, bound IgE (Assay Number 2, serum human 1916): 15 OD multiplied by 1000
OD, bound IgE (Assay Number 2, serum human 3848): 904 OD multiplied by 1000
OD, bound IgE (Assay Number 2, serum human 3958): 2369 OD multiplied by 1000
OD, bound IgE (Assay Number 2, serum human 3960): 1046 OD multiplied by 1000
OD, bound IgE (Assay Number 2, serum human 3961): 709 OD multiplied by 1000
OD, bound IgE (Assay Number 2, serum human 3987): 2457 OD multiplied by 1000
OD, bound IgE (Assay Number 2, serum human 4289): 160 OD multiplied by 1000
OD, bound IgE (Assay Number 2, serum human 4467): 660 OD multiplied by 1000
OD, bound IgE (Assay Number 2, serum human 5207): 1304 OD multiplied by 1000
OD, bound IgE (Assay Number 2, serum human pool): 1551 OD multiplied by 1000
reactivity: share of human serum samples reactive to native Der f 1 proteins that are also reactive to the recombinant protein (Table 1, 9 human samples (8 sera and pool), OD numbers greater than 100 positive): 100%
reactivity: share of human serum samples reactive to native Der f 1 proteins that are also reactive to the recombinant protein (Table 2, 10 human serum samples): 100%
OD, bound IgE (Table 3, sera 429, PDerf1303b preparation number A166-26, PDerf1223b preparation 1000-7): 104 OD multiplied by 1000
OD, bound IgE (Table 3, sera 1916, PDerf1303b preparation number A166-26, PDerf1223b preparation 1000-7): 0 OD multiplied by 1000
OD, bound IgE (Table 3, sera 3848, PDerf1303b preparation number A166-26, PDerf1223b preparation 1000-7): 457 OD multiplied by 1000
OD, bound IgE (Table 3, sera 3958, PDerf1303b preparation number A166-26, PDerf1223b preparation 1000-7): 2616 OD multiplied by 1000
OD, bound IgE (Table 3, sera 3960, PDerf1303b preparation number A166-26, PDerf1223b preparation 1000-7): 1420 OD multiplied by 1000
OD, bound IgE (Table 3, sera 3961, PDerf1303b preparation number A166-26, PDerf1223b preparation 1000-7): 744 OD multiplied by 1000
OD, bound IgE (Table 3, sera 3987, PDerf1303b preparation number A166-26, PDerf1223b preparation 1000-7): 2588 OD multiplied by 1000
OD, bound IgE (Table 3, sera 4467, PDerf1303b preparation number A166-26, PDerf1223b preparation 1000-7): 780 OD multiplied by 1000
OD, bound IgE (Table 3, sera 5207, PDerf1303b preparation number A166-26, PDerf1223b preparation 1000-7): 1887 OD multiplied by 1000
OD, bound IgE (Table 3, sera human pool, PDerf1303b preparation number A166-26, PDerf1223b preparation 1000-7): 1226 OD multiplied by 1000
OD, bound IgE (Table 6, pool of sera from 16 mite-allergic human patients, 6.2 ng protein per well): 53 OD
OD, bound IgE (Table 6, pool of sera from 16 mite-allergic human patients, 12.5 ng protein per well): 178 OD
OD, bound IgE (Table 6, pool of sera from 16 mite-allergic human patients, 25 ng protein per well): 240 OD
OD, bound IgE (Table 6, pool of sera from 16 mite-allergic human patients, 50 ng protein per well): 293 OD
OD, bound IgE (Table 6, pool of sera from 16 mite-allergic human patients, 100 ng protein per well): 354 OD
OD, bound IgE (Table 6, pool of sera from 16 mite-allergic human patients, 200 ng protein per well): 484 OD
